Tested on: Escherichia coli TOP10
Experiment: shrunken log2 fold change of peptide-encoding DNA abundance (4.5 h post-induction vs induction); higher = less antimicrobial activity (less host growth inhibition)
Conditions: time post-induction: 4.5 h; library: site-saturation at positions 5, 18, 19, 20
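Further: peptides expressed intracellularly from a pBAD plasmid library in pooled LB shake-flask culture, induced with 0.3% L-arabinose, DNA abundance read by NGS, three biological replicates, DESeq2 with apeglm shrinkage.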

| Sequence | shrunken log2 fold change |
| --- | --- |
| RRIRHRPPRLPRPRPRPVDCPRP | -0.0119 |
| RRIRHRPPRLPRPRPRPVDHPRP | -0.0462 |
| RRIRHRPPRLPRPRPRPVDKPRP | -0.308 |
| RRIRHRPPRLPRPRPRPVELPRP | 0.115 |
| RRIRHRPPRLPRPRPRPVFHPRP | -0.345 |
| RRIRHRPPRLPRPRPRPVFLPRP | -0.582 |
| RRIRHRPPRLPRPRPRPVGAPRP | 3.01 |
| RRIRHRPPRLPRPRPRPVHEPRP | -0.0609 |
| RRIRHRPPRLPRPRPRPVIIPRP | -0.248 |
| RRIRHRPPRLPRPRPRPVLDPRP | -0.116 |
| RRIRHRPPRLPRPRPRPVLNPRP | 0.157 |
| RRIRHRPPRLPRPRPRPVNDPRP | -0.0193 |
| RRIRHRPPRLPRPRPRPVNHPRP | -0.361 |
| RRIRHRPPRLPRPRPRPVNPPRP | -0.307 |
| RRIRHRPPRLPRPRPRPVPCPRP | 0.337 |
| RRIRHRPPRLPRPRPRPVPYPRP | -0.246 |
| RRIRHRPPRLPRPRPRPVRTPRP | 0.314 |
| RRIRHRPPRLPRPRPRPVSHPRP | 0.0628 |
| RRIRHRPPRLPRPRPRPVTMPRP | -0.513 |
| RRIRHRPPRLPRPRPRPVTSPRP | -0.000369 |
| RRIRHRPPRLPRPRPRPVTTPRP | 0.0639 |
| RRIRHRPPRLPRPRPRPVVFPRP | -0.147 |
| RRIRHRPPRLPRPRPRPVVKPRP | -0.132 |
| RRIRHRPPRLPRPRPRPVVLPRP | -0.298 |
| RRIRHRPPRLPRPRPRPVVPPRP | -0.0888 |

| Sequence | shrunken log2 fold change |
| --- | --- |
| RRIRHRPPRLPRPRPRPVYHPRP | -0.282 |
| RRIRHRPPRLPRPRPRPWCCPRP | -0.352 |
| RRIRHRPPRLPRPRPRPWDGPRP | -0.0969 |
| RRIRHRPPRLPRPRPRPWEAPRP | -0.0553 |
| RRIRHRPPRLPRPRPRPWELPRP | -0.0835 |
| RRIRHRPPRLPRPRPRPWGSPRP | -0.356 |
| RRIRHRPPRLPRPRPRPWHFPRP | -0.0331 |
| RRIRHRPPRLPRPRPRPWIAPRP | 0.143 |
| RRIRHRPPRLPRPRPRPWIVPRP | -0.404 |
| RRIRHRPPRLPRPRPRPWLSPRP | -0.0373 |
| RRIRHRPPRLPRPRPRPWMLPRP | -0.0885 |
| RRIRHRPPRLPRPRPRPWNEPRP | -0.171 |
| RRIRHRPPRLPRPRPRPWRFPRP | 0.0342 |
| RRIRHRPPRLPRPRPRPWRRPRP | -0.0609 |
| RRIRHRPPRLPRPRPRPWSFPRP | 0.0231 |
| RRIRHRPPRLPRPRPRPWVGPRP | 0.0323 |
| RRIRHRPPRLPRPRPRPWWQPRP | 0.00354 |
| RRIRHRPPRLPRPRPRPWYQPRP | 0.0124 |
| RRIRHRPPRLPRPRPRPYCAPRP | -0.346 |
| RRIRHRPPRLPRPRPRPYCNPRP | -0.456 |
| RRIRHRPPRLPRPRPRPYDQPRP | -0.291 |
| RRIRHRPPRLPRPRPRPYEAPRP | -0.445 |
| RRIRHRPPRLPRPRPRPYFAPRP | 0.52 |
| RRIRHRPPRLPRPRPRPYFFPRP | -0.485 |
| RRIRHRPPRLPRPRPRPYFVPRP | -0.84 |

| Sequence | shrunken log2 fold change |
| --- | --- |
| RRIRHRPPRLPRPRPRPYGPPRP | -0.311 |
| RRIRHRPPRLPRPRPRPYINPRP | -0.862 |
| RRIRHRPPRLPRPRPRPYLHPRP | -0.175 |
| RRIRHRPPRLPRPRPRPYMNPRP | -1.04 |
| RRIRHRPPRLPRPRPRPYMSPRP | -0.236 |
| RRIRHRPPRLPRPRPRPYNPPRP | -1.07 |
| RRIRHRPPRLPRPRPRPYPTPRP | -0.219 |
| RRIRHRPPRLPRPRPRPYRCPRP | 0.0121 |
| RRIRHRPPRLPRPRPRPYRNPRP | -0.191 |
| RRIRHRPPRLPRPRPRPYRYPRP | -0.177 |
| RRIRHRPPRLPRPRPRPYTDPRP | -0.000921 |
| RRIRHRPPRLPRPRPRPYTSPRP | -0.00159 |
| RRIRHRPPRLPRPRPRPYVCPRP | 0.0124 |
| RRIRHRPPRLPRPRPRPYVEPRP | 0.0369 |
| RRIRHRPPRLPRPRPRPYWHPRP | -0.666 |
| RRIRHRPPRLPRPRPRPYYCPRP | -0.541 |
| RRIRHRPPRLPRPRPRPYYDPRP | -0.0623 |
| RRIRIRPPRLPRPRPRPADDPRP | -0.062 |
| RRIRIRPPRLPRPRPRPADEPRP | -0.08 |
| RRIRIRPPRLPRPRPRPADFPRP | -0.162 |
| RRIRIRPPRLPRPRPRPADYPRP | -0.635 |
| RRIRIRPPRLPRPRPRPAELPRP | -0.0331 |
| RRIRIRPPRLPRPRPRPAEPPRP | -0.21 |
| RRIRIRPPRLPRPRPRPAETPRP | -0.0338 |
| RRIRIRPPRLPRPRPRPAFGPRP | 0.209 |

— the supplement of paper PMC9112550, “Optimization of the antimicrobial peptide Bac7 by deep mutational scanning” (BMC Biology, 2022)
